Reference: the supplement of paper PMC10567573

B1: PDZK1 (parent)
chain: QKEQGLSDNILSPVMNGGVQTWTQ
B2: KRT34 (parent)
chain: YQSYFKTIEELQQKILCAKAENAR

Variants of: B1
Experiment: protein stability index of a GFP-peptide fusion (GPS, HEK-293T) (PSI 1-6); higher = more stable
Conditions: c terminus: a fixed tail appended
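Also: lentivirally expressed fusions sorted by FACS into six bins by GFP to DsRed ratio, PSI derived from sequencing read proportions per bin multiplied by bin number.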

Protein stability index of substitutions, site by site:
P13: C 1.87, Q 2.5, F 1.56, V 2.41, R 2.09, S 2.37, Y 1.9, T 2.34, N 3.05, A 2.06, K 2.47, I 1.59, H 1.96
M15: C 1.97, E 3.69, S 2.21, Q 2.46, Y 2.44, T 2.97, N 2.85, D 3.02, A 1.84, H 2.51, I 2.79, F 1.87, R 2.24
L11: K 1.64, C 2.63, A 3.47, E 3.97, I 1.89, W 2.33, F 2.13, V 3.62, H 2.75, Q 2, Y 2.5, P 2.48, R 2.73, M 3.25
K2: H 2.81, I 2.42, D 3.23, Y 3.24, G 2.76, F 2.26, R 3.05, N 2.88, P 2.67, S 3.13, C 3.57, Q 3.15, M 2.51, E 3.35, T 3.26
E3: C 2.05, F 1.67, T 2.88, M 2.61, S 2.02, Y 1.68, L 2.12, D 3.51, H 2.24, K 4.26, I 2.67, V 2.05, G 1.82, Q 2.18, P 2.93, W 2.17, A 3.02, R 1.52
S7: K 2.18, F 2, T 2.09, A 2.51, Y 2.12, P 3.36, G 3.19, N 2.77, E 3.43, Q 2.13, C 3.27, D 2.54, I 2.48, M 2.68
N9: K 1.8, T 2.56, E 3.25, R 2.05, I 2.88, L 2.21, S 2.75, G 2.56, V 2.38, F 1.86, C 2.67, M 2.74, A 2.67, Q 2.5, Y 1.78, D 3.45, H 2.34
N16: P 2.12, Y 2.45, L 2.47, C 2.75, H 2.81, S 2.81, E 3.41, K 1.49, Q 1.72, I 2.89, F 2.61, R 2.34, D 3.71
Q4: D 3.67, Y 1.98, C 2.08, R 3.73, T 2.78, W 1.85, M 1.82, V 2.52, K 2.08, L 2.14, E 2.85, P 2.64, H 2.61, N 2.29, F 2.21
L6: M 2.12, Q 3.92, P 3.03, H 3.12, F 1.87, G 2.61, C 2.98, T 3.27, N 3.29, D 2.65, E 3.65, A 2.96, K 4.46, W 2.56, Y 2.49, R 3.71
V14: S 2.91, Y 1.94, M 2.65, R 2.64, G 1.5, A 3.29, N 2.77, C 3.74, K 2.54, I 2.4, T 2.93, P 2.47, H 2.46, Q 2.9, E 2.78
G17: I 3.36, F 2.19, E 3.27, A 3.96, K 2.13, H 1.91
S12: W 1.95, Y 2.83, D 3.84, M 2.22, N 3.27, P 3.76, K 2.18, F 2.76, H 1.74, T 2.36, I 3.58, G 3.21, A 2.58
Q1: C 1.91, S 2.1, F 1.97, R 2.02, E 3.26, N 2.75, G 2.15, I 2.12, P 3.23, A 2.61, K 2.58, W 1.94, V 1.96, T 2.7, Y 2.47, D 3.37, M 2.98, L 2.41
G5: M 1.99, F 2.44, N 2.7, D 2.85, T 2.92, H 1.98, C 3.57, P 3.15, W 2.29, A 2.4, Y 1.66, Q 2.7, E 2.82, S 1.87, R 2.7, I 2.48
D8: E 3.04, K 2.1, V 2.29, S 2.34, I 2.05, N 2.68, G 3.29, F 1.1, C 1.51, Y 2.15, L 2.73, R 2.59, P 2.34, W 2.4, T 2.39, M 1.92
I10: C 3.03, F 2.04, A 2.89, Q 3.34, V 2.56, M 2.67, E 3.89, K 3.02, Y 2.6, R 2.35, N 3.43, H 2.96, G 2.83

Variants of: B2
Experiment: as above
Conditions: c terminus: a fixed tail appended

Protein stability index: each site, then its substitutions
E21: S 1.96, V 2.42, K 1.99, P 2.14, D 1.74, M 1.26, Y 1.27, Q 1.89, G 1.03, C 2.38, R 2.12, H 2.24, F 1.17, N 1.69, T 2.05, I 1.29, L 2.17, A 2.93
K19: Y 1.35
A20: E 2.14, N 1.71, C 2.01, P 1.79, W 1.46, L 2.34, K 2.16, D 2.18, H 2.06, I 1.86, M 2.57, V 1.71, Y 1.3, T 1.87, R 1.88, Q 1.78, F 1.4
A23: V 1.32, S 2.05, R 2.06, Q 2.17, K 2.17, I 1.65, P 2.38, G 1.96, T 1.64, C 1.39, E 2.71, N 1.55, M 1.88, H 2.93, D 2.08, L 2.01, F 2.72, Y 1.87
N22: H 1.81, G 1.36, P 1.89, R 1.43, S 2.46, C 2.04, K 2.22, Q 2.09, E 1.89, Y 1.59, L 2.26, A 1.69, F 2.17, M 1.59, D 2.54, T 2.4
R24: M 1.02, I 2.17, F 1.91, P 1.57, E 1.32, L 1.77, Y 2.6, K 1.93, T 1.64, V 2.78, G 1.16, Q 3.56, H 2.2, D 1.16, W 2.32, N 2.25, C 1.59, A 1.52, S 1.74
